Experimental data reported in patent publication US12472269B2, “Liver-specific inducible promoters and methods of use thereof” (ASKBIO INC., priority 2019, dated 2025).

Experiments:
AXOL ARE-hepatocytes = assay: Luciferase expression from PBREM promoters in AXOL ARE-hepatocytes, induction by CITCO; format: cell-based, human; conditions: induction with CITCO, mean of 3 biological replicates
Source text: Axol Assay-Ready Expanded (ARE) Hepatocytes are primary human hepatocytes that have been expanded in vitro. Large batch sizes (up to 2000 vials) are available, ensuring a reliable, ready-to-use and consistent source of primary hepatocytes. ARE Hepatocytes express CYP enzymes, are metabolically functional, are polarized and can be infected by the Hepatitis C virus. AXOL ARE-hepatocytes express CAR negating the need to transfect with a CAR-expressing plasmid.
• AXOL assay-ready expanded (ARE) hepatocytes (Axol, ax3701) • ARE hepatocyte thawing medium (Axol, ax3705) • ARE maintenance medium (Axol, ax3710) • Virimer red transfection reagent (Lipocalyx, VR04-02-15) • CITCO, lucifierase, β-galactosidase and BCA kits as described above
ARE hepatocytes were cultured and transfected as described in the manufacturer's manual. 200,000 cells were seeded in 2 ml culture medium in collagen-coated 6 well plate. The cells were incubated for 4 h at 37° C. and 5% CO2 for sufficient adhesion. 200 μl of transfection mixture containing the DNA to be transfected (PB1-MinTK/PB1-CMV/PB1-SV40 operably linked with luciferase and β-galactosidase containing promoter) was added and the cells were incubated on an orbital shaker at 100 rpm for three hours at 37° C. and 5% CO2. 3 hrs after transfection CITCO was added to the appropriate wells. Cells were incubated under static conditions at 37° C. and 5% CO2 overnight and in the morning the medium was replaced with fresh ARE Hepatocyte Maintenance Medium. Readout was 24 hrs after induction. […]

CD1 male mice = assay: In vivo bioluminescence imaging of mice injected with AAV9 constructs, induction by phenobarbital
Method: • Seed HEK 293-AAV cells in 15 cm plates. To be 70-80% confluent on the day of transfection • Final volume on each plate: 15 ml Day 2: Prepare Transfection Mix: • DNA mix/plate: pDG9 (Packaging plasmid for AAV9): 10.5 μg/pHGTI (Ad. Helper plasmid): 31.5 μg/Vector plasmid: 10.5 μg/Prepare in serum free DMEM/Optimem • Transfer mix/plate: PEI: 125 μl/Prepare in serum free DMEM/Optimem • Add DNA mix into transfection mix. Mix and leave at room temperature for 15-20 mins. • Add 3 ml of transfection mix to each plate drop-wise and gently distribute. Incubate for 24 h. Day 3: • Replace media with 15 ml DMEM supplemented with P/S and 2% FCS. Leave for 48 h. Day 5: • Collect supernatant and pool in 50 ml tubes, 25 ml each tube. Store at −20° C. • Collect cells: Add 5 ml of PBS to each plate→scrape and collect in 50 ml tubes. • To wash plates, add another 1 ml of PBS and collect. • Spin at 1500 rpm for 5 mins. • Remove supernatant and resuspend pelleted cells in 1 ml/plate TD lysis buffer→pool • Store at −80′C. Endonuclease Treatment Cells: • Freeze and thaw pellets 5 times→˜20 mins at 37° C. then ˜20 mins in dry ice (or −80° C.). • Add 25 μl/ml cells of 20% Deoxycholate (or 50 μl/ml of 10% Deoxycholate). • Add 8 μl/ml cells of benzonase. • Incubate at 37° C. for 30 mins. • Spin at 4 Krpm for 30 mins. • Filter supernatant using […] filters. • Store at 4° C. for up to 24 h. Supernatant: • Add 2.5 μl/25 ml supernatant of benzonase. • Add 50 μl/25 ml supernatant of MgSO4. • Incubate at 37° C. for 30 mins. • Spin at 4 Krpm for 30 mins. • Filter supernatant using […] filters. • Store at 4′C for up to 24 h. Hplc Purification • Place both lines in 20% ETOH→template→system wash • Put line A in PBS and line B in Glycine→template→system wash • Place the column in the machine→manual run→flowrate: 5 ml/min→Run for 25 ml or until the UV line is flat. • Prepare FACS tubes (10 for cells and more for supernatant): add 30 μl/tube Tris→put in the machine to collect vectors. • Place the waste lines in a separate tube to be able to run them again through the column. • Run samples (flowrate low, depending on how fast the system and how concentrated the sample is; for cells it is slower, for supernatant it is higher). • After running the waste through the column, wash with PBS→flowrate: 5 ml/min until the UV line is flat. • Set→fraction size: 1 ml; Flowrate: 1 ml/min; concentration % B: 100%→run. • Start collecting: Look for the peak. The peak indicates vector purification. Mark the tubes containing these vectors. • Save programme before exiting. • Wash with PBS→75 ml, 5 ml/min • Wash with Na3PO4 (to store the column in)→75 ml, 5 ml/min • Remove column and store at 4° C. • Wash the machine with PBS→template→system wash • Wash the machine with 20% ETOH→template→system wash • Put both lines in 20% ETOH and shut down • Add 2 L of PBS into a big bucket and put the Dialysis cassette (Side-A-Lyzer; Thermo scientific) to prime. • Collect the vectors from the marked FACS tubes using a syringe and needle and add into the dialysis cassette→remove excess air from the membrane, carefully place the rubber on top of the cassette and let it float in the PBS-containing bucket→leave over night at room temperature on a slow rotating rotor. Next Day: • Prime membrane by adding 5 ml PBS onto a centrifugal filter (Amico Ultra 15; MERCK)→spin for 5 mins at 4 Krpm • Remove excess PBS from inside the membrane. • Take vectors out from the cassette and load onto the membrane→spin for 5 mins at 4 Krpm • Wash the membrane with the vectors inside few times, then collect into 2 ml centrifuge tube filter 0.22 μM (Spin-X; COSTAR) • Spin for 3 mins at 13 Krpm. • Remove filter and aliquot: 1×100 μl (for injection), the rest in 10-2 μl aliquots. • Store in −80° C. • Virus quantification was performed using qRT-PCR with primers and probes for the luciferase gene. Mice Experiment […]

AXOL ARE hepatocytes = assay: Luciferase expression from pAAV constructs in AXOL ARE hepatocytes without CITCO, with CITCO and after CITCO withdrawal; format: cell-based, human; conditions: pAAV vector
Method: Luciferase expression from the PB1-MinTK and PB1-2-MinTK constructs in the pAAV vector in AXOL ARE hepatocytes is inducible by CITCO (1 μM) but reduces after removing CITCO as shown in FIG. 5.

[1] = system: Huh7 and ARE primary cells; assay: Effect of AAV ITRs: pAAV constructs transfected into Huh7 and ARE primary cells, compared with pGL4.10; format: cell-based, human; conditions: mean of 3 biological replicates
Source text: Following from Example 3, it was decided to take PB1-MinTK and PB1-2-MinTk forward for in vivo studies. To facilitate this the two aforementioned constructs were cloned into pAAV vector (Takara, Clontech) to allow for the preparation of AAV viruses. The inserts where cloned using restriction digest of the pAAV plasmid and PCR amplification of the original pGL4.10 constructs.
We investigated the effect of the Inverted Terminal Repeats (ITRs) on the activity of the promoters. This was done as we have observed interference from the AAV ITRs in other projects. To this end, the pAAV-PB1-MinTk and pAAV-PB1-2-MinTk were transfected into Huh7 and ARE primary cells as previously described and their activity assessed.

[2] = AAV9, phenobarbital intraperitoneally

B1: PB1-2-MinTK: promoter: 3×PBREM and min-TK promoter, SEQ ID NO: 11 (nucleic acid)
DNA: TCTGTACTTTCCTGACCTTGGCACAGTGCCACCATCAACTTGCCTGACACCCATTACTCGCATCCATTCTCTCTGTACTTTCCTGACCTTGGCACAGTGCCACCATCAACTTGCCTGACACCGCACTGAAGGTCCTCAATCGTCTGTACTTTCCTGACCTTGGCACAGTGCCACCATCAACTTGCCTGACACCGCTGGGAGTTCGTAGACGGAGATCCGGCCCCGCCCAGCGTCTTGTCATTGGCGAATTCGAACACGCAGATGCAGTCGGGGCGGCGCGGTCCGAGGTCCACTTCGCATATTAAGGTGACGCGTGTGGCCTCGAACACCGAGCGACCCTGCAGCGACCCGCTTAACAGCGTCAACAGCGTGCCGCAGATCTCGAGGAGCTTGGCGAGATTTTCAGGAGCTAAGGAAGCTAAAC
modifications: PB1-2-MinTk (3xPBREM)
Question: For B1, which “induced luciferase expression as a ratio to CMV-IE” value (AXOL ARE-hepatocytes) is on record?
Answer: 4.1

Question: And the “luciferase expression before induction” value (CD1 male mice; 0 hrs)?
Answer: no expression of the luciferase gene

Question: And the “time at which induction is complete” value (CD1 male mice; [2])?
Answer: 48 h

Question: And the “time of maximal activity after induction” value (CD1 male mice; [2])?
Answer: 24 h

Question: And the “tissue distribution of luciferase expression” value (CD1 male mice; AAV9 via tail vein)?
Answer: confined to the liver

Question: And the “luciferase expression with CITCO” value (AXOL ARE hepatocytes; CITCO (1 μM))?
Answer: inducible

Question: What about the “activity of the promoter after removal of CITCO” value (AXOL ARE hepatocytes; CITCO withdrawal) of the same molecule?
Answer: almost baseline levels

Question: What about the “induction of luciferase expression across pGL4.10 and pAAV vectors and cell types” value [1] of the same molecule?
Answer: comparable across vectors and cell types
